# Patent publication US9433687B2, “Anti-Notch3 antibodies and antibody-drug conjugates” (Pfizer Inc., priority 2012, dated 2016)
# Columns and labels:
# [1] = system: HCC2429 or MDA-MB-468 cells; experiment: Co-localization with LAMP1, indirect immunofluorescence; format: cell-based, human; conditions: 10 μg/ml; after incubation at 37° C. for 90 minutes
# Protocol: HCC2429 or MDA-MB-468 cells were cultured in a Lab Tec II 4 chambered coverglass with cover #1.5 borosilicate sterile slides (Thermo Fisher Scientific Inc.). For binding and internalization assays, cells were washed twice with HBSS++ and unconjugated anti-Notch3 antibodies, hu75 and hu28, were added to the cells at a concentration 10 μg/ml in 2% bovine serum albumin (BSA)/HBSS++ for 25 minutes on ice. To visual membrane binding at time 0 minutes, control cells were washed with ice cold HBSS++ and then fixed in 4% paraformaldehyde in PBS for 10 minutes. For antibody internalization, cells were washed twice with ice cold HBSS++ and then pre-warmed complete growth media was added to the cells and placed inside a humidified 37° C., 5% CO2 incubator. Cells were removed from the incubator, washed and fixed as before at multiple time points from 5 minutes to 18 hours. Cells were then washed 3 times with PBS, and permeabilized for 10 minutes with 0.3% Triton X-100 in PBS. Cells were washed 3 times with PBS for 5 minutes each time and then blocked for 1 hour in 3% BSA/PBS. Anti-LAMP-1 mouse monoclonal antibody (H4A3, Abcam) was added at 1:100 in 2% BSA/PBS for overnight incubation at 4° C. Cells were washed twice with PBS for 5 minutes each and then secondary goat anti-human Alexa Fluor 488 and goat anti-mouse Alexa Fluor 555 (Life technologies) were added for 45 minutes in the dark. […]
# [2] = target: T1, cell surface Notch3 on OVCAR3 cells (Homo sapiens, UniProt Q9UM47); experiment: Cell-based ELISA, OVCAR3 cells; conditions: Table 29; LB = lacked binding
# T1 construct: Notch3 endogenously expressing cells MDA-MB-468, HCC2429 and OVCAR3; endogenous in cells; host or cells: OVCAR3
# [3] = target: T2, MDA-MB-468 (Homo sapiens, UniProt Q9UM47); experiment: Flow cytometry (FACS) binding, MDA-MB-468; conditions: 4 μg/mL antibody
# T2 construct: endogenous Notch3 expressing cell lines, HCC2429 and MDA-MB-468; endogenous in cells; host or cells: MDA-MB-468
# Protocol: (§1) Unconjugated anti-Notch3 antibodies, hu28 and hu75, were examined for cell surface binding activity to Notch3 expressing cell lines by flow cytometry. Fluorescence activated cell sorting (FACS) analysis was conducted according to standard procedures. Cells were rinsed in HBSS with calcium chloride and magnesium chloride (herein termed HBSS++), harvested using trypsin without EDTA and neutralized with medium containing FBS. Cells were incubated on ice for 30 minutes with 4 μg/mL anti-Notch3 antibodies, hu28 and hu75, in HBSS++containing 3% HICS (heat-inactivated calf serum). Cells were washed three times with cold HBSS++, 3% HICS buffer. Cells were incubated in allophycocyanin-conjugated AffiniPure F(ab′)2 fragment goat anti-human IgG, Fc fragment secondary antibody (Jackson ImmunoResearch Laboratories, Inc., West Grove, Pa.) at 10 μg/mL for 30 minutes on ice in the dark. Cells were washed once with cold HBSS++/3% HICS buffer. Cells were resuspended in HBSS-++/3% HICS, 25 mM HEPES, 1 mM MgCl2 and 25 μg/ml DNaseI. 7-AAD (7-Amino-Actinomycin D) was added for exclusion of nonviable cells. Live cells were analyzed on a BD FACSCalibur flow cytometer (BD Biosciences, San Jose, Calif.). Mean fluorescence intensity (MFI) from channel FL-4 was calculated with FlowJo flow cytometry analysis software (Ashland, Oreg.).
# [4] = target: T3, HCC2429 (Homo sapiens, UniProt Q9UM47); experiment: Flow cytometry (FACS) binding, HCC2429; conditions: 4 μg/mL antibody
# T3 construct: endogenous Notch3 expressing cell lines, HCC2429 and MDA-MB-468; endogenous in cells; host or cells: HCC2429
# Protocol: as §1
# [5] = target: T4, MDA-MB-468/hNotch3 (Homo sapiens, UniProt Q9UM47); experiment: In vitro cytotoxicity (MTS), MDA-MB-468/hNotch3; format: cell-based; conditions: MDAMB468/hNotch3; data not shown
# T4 construct: cell lines engineered to over-express full length human Notch3 protein: MDA-MB-468/hNotch3 and U2OS/hNotch3; expressed in transfected cells; host or cells: MDA-MB-468
# Protocol: The effects of anti-Notch3 ADCs were assessed on 1) cell lines endogenously expressing Notch3 protein: HCC2429 (lung cancer), OVCAR3 (ovarian cancer) and MDA-MB-468 (breast cancer), 2) cell lines engineered to over-express full length human Notch3 protein: MDA-MB-468/hNotch3 and U2OS/hNotch3, and 3) a negative control cell line (SW900) using an MTS cellular viability indicator (Promega, Madison, Wis.). These cell lines were cultured with increasing concentrations of anti-Notch3 ADCs comprising rat-human chimeric anti-Notch3 antibodies, ch28 and ch75, and humanized anti-Notch3 antibodies, hu28 and hu75, conjugated to various linker-payload combinations of the present invention. As a specificity control for the anti-Notch3-ADCs, non-targeted control-ADCs (huNeg8.8-ADCs or ch2H6-ADCs) were also tested on the same cell lines. After four days, viability of each culture was assessed. IC50 values were calculated by logistic non-linear regression, model #203 with XL fit v4.2 (IDBS, Guildford, Surry, UK) and presented as ng Ab/mL. The drug antibody ratio (DAR) is also provided.
# [6] = target: T5, mouse Notch3 expressed on the cell surface of U2OS/mNotch3 cells (Mus musculus, UniProt Q61982); experiment: Cell-based ELISA, U2OS/mNotch3 cells; conditions: Table 3; N/B = non-binding
# T5 construct: U-2 OS cells stably over-expressing human or mouse full length Notch3 protein on cell surface; expressed in transfected cells; host or cells: U-2 OS (human osteosarcoma)
# Protocol: Humanized hu28 and hu75, and rat-human chimeric, ch28 and ch75, anti-Notch3 antibodies were screened for cell surface Notch3 binding in a cell-based ELISA. U-2 OS cells stably over-expressing human or mouse full length Notch3 protein on cell surface (hereinafter U2OS/hNotch3 and U2OS/mNotch3, respectively) were plated at 50,000 cells/well in 96 well plates (white opaque, BD/VWR) the day before ELISA assay. On the day of the ELISA, culture media was removed from wells and serially diluted (1:3 in blocking buffer) antibody solutions were applied to the plate. Plates were incubated at room temperature for 2 hours before being washed with PBS-Mg/Ca. HRP-conjugated secondary antibody was then applied and incubated with cells for 1 hour as described above for recombinant protein ELISA. […] Data plotting and analyses were performed with Microsoft Excel and Graphpad-Prism software.
# T5 sequence (Q61982 40-2318): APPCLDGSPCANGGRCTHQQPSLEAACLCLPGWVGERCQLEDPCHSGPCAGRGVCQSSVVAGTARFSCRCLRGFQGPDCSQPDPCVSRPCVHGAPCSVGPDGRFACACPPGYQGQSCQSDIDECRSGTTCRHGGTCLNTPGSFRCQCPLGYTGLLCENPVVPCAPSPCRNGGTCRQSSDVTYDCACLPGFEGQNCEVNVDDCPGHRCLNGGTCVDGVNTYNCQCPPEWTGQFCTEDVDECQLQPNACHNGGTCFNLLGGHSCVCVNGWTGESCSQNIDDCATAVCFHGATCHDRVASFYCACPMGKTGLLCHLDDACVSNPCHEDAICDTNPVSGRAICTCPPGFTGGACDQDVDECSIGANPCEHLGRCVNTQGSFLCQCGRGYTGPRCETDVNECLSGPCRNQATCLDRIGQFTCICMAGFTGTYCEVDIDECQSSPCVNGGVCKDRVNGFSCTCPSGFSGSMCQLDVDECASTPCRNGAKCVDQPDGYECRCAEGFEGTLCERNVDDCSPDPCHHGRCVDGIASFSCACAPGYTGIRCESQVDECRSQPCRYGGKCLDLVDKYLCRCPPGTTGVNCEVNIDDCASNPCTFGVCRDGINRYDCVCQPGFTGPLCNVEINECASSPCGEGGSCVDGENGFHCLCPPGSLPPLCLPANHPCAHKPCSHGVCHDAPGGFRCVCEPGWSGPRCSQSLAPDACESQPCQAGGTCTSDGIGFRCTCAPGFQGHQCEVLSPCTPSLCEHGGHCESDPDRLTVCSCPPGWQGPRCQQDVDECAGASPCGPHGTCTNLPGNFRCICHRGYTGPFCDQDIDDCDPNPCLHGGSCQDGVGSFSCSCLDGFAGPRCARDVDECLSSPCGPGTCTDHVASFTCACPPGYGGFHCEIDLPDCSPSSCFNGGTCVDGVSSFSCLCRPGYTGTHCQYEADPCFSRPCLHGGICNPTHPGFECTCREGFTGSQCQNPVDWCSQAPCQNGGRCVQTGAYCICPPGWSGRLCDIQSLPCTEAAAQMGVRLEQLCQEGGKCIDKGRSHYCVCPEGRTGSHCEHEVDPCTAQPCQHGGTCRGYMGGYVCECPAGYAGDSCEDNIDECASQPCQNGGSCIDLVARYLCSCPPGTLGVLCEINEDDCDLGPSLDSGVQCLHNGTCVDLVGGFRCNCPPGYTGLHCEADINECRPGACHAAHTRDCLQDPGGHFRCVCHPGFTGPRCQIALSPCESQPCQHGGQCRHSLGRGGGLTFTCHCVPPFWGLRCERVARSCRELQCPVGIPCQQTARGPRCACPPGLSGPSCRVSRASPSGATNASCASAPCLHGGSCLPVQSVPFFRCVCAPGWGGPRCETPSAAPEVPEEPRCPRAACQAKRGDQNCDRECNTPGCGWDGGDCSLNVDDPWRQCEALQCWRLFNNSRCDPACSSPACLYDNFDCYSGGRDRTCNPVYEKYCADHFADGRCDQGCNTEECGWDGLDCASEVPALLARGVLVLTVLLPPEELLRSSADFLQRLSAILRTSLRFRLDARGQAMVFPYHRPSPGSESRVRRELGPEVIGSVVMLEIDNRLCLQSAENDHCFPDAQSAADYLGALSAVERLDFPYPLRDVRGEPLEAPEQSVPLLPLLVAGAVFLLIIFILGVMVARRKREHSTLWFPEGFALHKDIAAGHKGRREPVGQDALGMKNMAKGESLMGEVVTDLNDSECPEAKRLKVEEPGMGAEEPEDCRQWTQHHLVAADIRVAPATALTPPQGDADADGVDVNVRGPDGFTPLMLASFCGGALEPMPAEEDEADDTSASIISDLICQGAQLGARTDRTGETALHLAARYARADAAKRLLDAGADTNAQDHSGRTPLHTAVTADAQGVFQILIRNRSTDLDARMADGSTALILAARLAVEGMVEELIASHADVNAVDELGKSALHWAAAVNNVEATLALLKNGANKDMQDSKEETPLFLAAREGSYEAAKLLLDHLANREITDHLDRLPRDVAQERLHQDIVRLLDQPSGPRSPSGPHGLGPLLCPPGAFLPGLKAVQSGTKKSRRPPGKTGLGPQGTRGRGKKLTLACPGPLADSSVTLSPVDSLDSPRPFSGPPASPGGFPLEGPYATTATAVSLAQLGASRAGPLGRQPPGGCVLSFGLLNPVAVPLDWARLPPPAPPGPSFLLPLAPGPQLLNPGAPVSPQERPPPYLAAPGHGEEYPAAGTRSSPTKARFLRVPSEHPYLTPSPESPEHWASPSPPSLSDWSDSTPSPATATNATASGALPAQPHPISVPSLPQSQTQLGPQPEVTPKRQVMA
# T2 sequence (Q9UM47 40-2321): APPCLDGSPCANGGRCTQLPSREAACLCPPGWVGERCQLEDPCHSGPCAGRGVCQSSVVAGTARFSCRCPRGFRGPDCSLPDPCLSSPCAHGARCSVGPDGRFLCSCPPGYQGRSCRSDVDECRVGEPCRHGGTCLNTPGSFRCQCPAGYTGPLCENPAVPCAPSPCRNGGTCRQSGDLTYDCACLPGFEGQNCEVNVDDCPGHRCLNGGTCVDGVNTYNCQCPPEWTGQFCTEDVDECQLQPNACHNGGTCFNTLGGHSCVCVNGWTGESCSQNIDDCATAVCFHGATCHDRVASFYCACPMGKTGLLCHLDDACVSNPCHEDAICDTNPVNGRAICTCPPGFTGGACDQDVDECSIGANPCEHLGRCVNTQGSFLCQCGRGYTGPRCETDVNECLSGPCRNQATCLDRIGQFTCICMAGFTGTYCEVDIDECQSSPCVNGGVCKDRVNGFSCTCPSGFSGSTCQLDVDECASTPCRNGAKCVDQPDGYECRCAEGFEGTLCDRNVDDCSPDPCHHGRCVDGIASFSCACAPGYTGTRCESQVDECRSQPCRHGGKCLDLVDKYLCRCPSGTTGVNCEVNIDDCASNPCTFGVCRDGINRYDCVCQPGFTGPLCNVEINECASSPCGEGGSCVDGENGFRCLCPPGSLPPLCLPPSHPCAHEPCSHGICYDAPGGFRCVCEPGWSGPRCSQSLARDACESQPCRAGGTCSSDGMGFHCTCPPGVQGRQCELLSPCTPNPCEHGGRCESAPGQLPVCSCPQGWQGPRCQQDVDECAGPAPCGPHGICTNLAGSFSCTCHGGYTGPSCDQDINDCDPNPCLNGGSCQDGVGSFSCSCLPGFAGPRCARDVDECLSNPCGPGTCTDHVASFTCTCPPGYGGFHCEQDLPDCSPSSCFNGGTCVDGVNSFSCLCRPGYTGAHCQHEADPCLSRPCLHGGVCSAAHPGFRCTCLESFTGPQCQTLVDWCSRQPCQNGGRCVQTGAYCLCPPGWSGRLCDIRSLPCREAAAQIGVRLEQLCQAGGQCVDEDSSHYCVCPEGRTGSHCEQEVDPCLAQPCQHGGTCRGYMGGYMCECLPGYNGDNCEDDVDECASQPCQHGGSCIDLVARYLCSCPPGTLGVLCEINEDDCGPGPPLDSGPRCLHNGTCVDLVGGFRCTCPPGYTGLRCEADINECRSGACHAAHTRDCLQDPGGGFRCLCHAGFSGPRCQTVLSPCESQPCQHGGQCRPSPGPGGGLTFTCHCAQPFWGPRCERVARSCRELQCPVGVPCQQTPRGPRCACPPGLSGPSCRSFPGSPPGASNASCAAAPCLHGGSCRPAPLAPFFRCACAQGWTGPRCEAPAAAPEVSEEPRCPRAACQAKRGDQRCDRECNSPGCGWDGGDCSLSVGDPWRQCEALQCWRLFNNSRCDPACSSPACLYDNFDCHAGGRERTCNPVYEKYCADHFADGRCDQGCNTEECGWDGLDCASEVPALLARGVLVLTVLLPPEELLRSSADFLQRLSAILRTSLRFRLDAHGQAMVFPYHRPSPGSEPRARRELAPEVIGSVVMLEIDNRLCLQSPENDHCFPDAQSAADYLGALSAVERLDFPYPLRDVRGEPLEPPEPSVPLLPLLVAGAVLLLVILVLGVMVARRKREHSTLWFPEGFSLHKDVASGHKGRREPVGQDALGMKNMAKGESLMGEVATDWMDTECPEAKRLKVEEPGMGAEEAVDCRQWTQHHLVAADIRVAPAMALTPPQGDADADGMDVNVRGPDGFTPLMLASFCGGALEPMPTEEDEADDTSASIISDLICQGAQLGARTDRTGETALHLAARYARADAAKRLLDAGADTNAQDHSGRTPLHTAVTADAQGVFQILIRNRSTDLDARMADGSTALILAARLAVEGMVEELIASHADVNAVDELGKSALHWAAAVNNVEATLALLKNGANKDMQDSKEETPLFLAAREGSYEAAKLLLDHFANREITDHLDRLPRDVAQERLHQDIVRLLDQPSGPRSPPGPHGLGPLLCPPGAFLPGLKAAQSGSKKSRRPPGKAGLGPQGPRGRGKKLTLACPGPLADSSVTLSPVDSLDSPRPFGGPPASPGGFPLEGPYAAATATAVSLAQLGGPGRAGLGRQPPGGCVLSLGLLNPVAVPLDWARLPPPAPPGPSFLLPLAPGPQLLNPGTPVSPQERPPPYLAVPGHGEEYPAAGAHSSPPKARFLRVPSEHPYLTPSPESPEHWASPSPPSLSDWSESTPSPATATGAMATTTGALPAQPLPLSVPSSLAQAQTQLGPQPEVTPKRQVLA
# T4 sequence (Q9UM47 40-2321): as above
# T3 sequence (Q9UM47 40-2321): as above
# T1 sequence (Q9UM47 40-2321): as above
EC50 [2] [nM],MFI [3],MFI [4],"EC50 (nM) cell surface Notch3 binding ELISA, Full-length Mouse Notch3 [6]",Molecule,co-localization with LAMP1 after internalization [1],effect of unconjugated antibody on viability [5]
0.46,557,564,,"hu28 VH1.0/VL1.0: humanized r28 variant VH1.0/VL1.0, anti-Notch3 antibody (VH SEQ ID NO: 13, VL SEQ ID NO: 25) (antibody, V domains shown) VH: EVQLVESGGGLVQPGGSLRLSCAASGFTFRDYGMTWVRQAPGKGLEWVAYISSGSNYIYYAEAVKGRFTISRDNAKNSLYLQMNSLRAEDTAVYYCARRGPFVLDAWGQGTLVTVSS VL: DIQMTQSPSSLSASVGDRVTITCKASQSINRYLHWYQQKPGKAPKLLIYNANGLQTGVPSRFSGSGSGTDFTLTISSLQPEDFATYYCLQHNTWPDTFGGGTKVEIK",co-localized with anti-LAMP1 antibodies,did not affect the viability
,,,N/B,"ch75: rat-human chimeric anti-Notch3 antibody 75, rat variable regions fused with human IgG1 and human kappa (antibody, V domains shown) VH: QVKLLQSGAALVKPGASVKMSCKASGYAFTDYWVTWVKQSHGKSLEWIGEISPNSGGTNFNEKFKGKATLTVDKSTSTAYMELSRLTSEDSAIYYCTRGEIRYNWFAYWGQGTLVTVSS VL: NIVMTQSPKSMSISVGDRVTMNCKASQNVGNNIAWYQQKPGQSPKLLIYYASNRYTGVPDRFTGGGYGTDFTLTINSMQAEDAAFYYCQRLYNSPFTFGSGTKLEIK",,
